Results from patent US20140274782A1 (Stanford University, published 2014).

How the values were obtained:
Experiment in all cases: ProtoArray, GST-treated control array;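 also: human protein microarray (about 9500 recombinant proteins) incubated overnight with GST alone plus SAM cofactor as the negative control for G9a SET domain methylation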
[1] = target: T1, CD79A-B-cell antigen receptor complex-associated protein alpha-chain (human, UniProt P11912 33-226, limits assumed)
T1 sequence (looked up): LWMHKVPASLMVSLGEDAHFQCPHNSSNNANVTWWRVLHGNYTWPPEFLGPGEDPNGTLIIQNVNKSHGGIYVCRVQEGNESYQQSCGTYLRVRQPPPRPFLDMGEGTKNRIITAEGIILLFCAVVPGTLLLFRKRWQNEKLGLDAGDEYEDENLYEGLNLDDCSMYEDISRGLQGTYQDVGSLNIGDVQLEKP

[2] = target: T2, MOBKL3-Mps one binder kinase activator-like 3 (human, UniProt Q9Y3A3 1-225, limits assumed)
T2 sequence (looked up): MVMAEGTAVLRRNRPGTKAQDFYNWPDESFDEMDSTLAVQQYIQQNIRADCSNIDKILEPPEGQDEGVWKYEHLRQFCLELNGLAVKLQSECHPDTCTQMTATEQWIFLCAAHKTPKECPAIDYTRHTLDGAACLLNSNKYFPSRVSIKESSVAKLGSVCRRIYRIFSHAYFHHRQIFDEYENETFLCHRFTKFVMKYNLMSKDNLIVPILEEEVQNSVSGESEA

[3] = target: SAR1B-SAR1 gene homolog B (S. cerevisiae) (SAR1B), transcript variant 2 (human, UniProt Q9Y6B6 1-198)
[4] = target: T3, C2orf43-chromosome 2 open reading frame 43 (C2orf43) (human, UniProt Q9H6V9 1-325, limits assumed)
T3 sequence (looked up): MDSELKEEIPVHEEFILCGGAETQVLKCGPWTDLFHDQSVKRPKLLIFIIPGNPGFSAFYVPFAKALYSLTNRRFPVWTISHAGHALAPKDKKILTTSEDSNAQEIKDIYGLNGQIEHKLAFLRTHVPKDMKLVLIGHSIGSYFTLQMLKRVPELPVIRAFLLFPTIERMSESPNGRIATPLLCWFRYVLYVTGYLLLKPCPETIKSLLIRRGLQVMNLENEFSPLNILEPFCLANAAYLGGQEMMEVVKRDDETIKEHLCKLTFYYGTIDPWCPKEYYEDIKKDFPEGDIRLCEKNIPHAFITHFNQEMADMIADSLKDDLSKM

[5] = target: T4, C10orf58-chromosome 10 open reading frame 58 (C10orf58) (human, UniProt Q9BRX8 1-229, limits assumed)
T4 sequence (looked up): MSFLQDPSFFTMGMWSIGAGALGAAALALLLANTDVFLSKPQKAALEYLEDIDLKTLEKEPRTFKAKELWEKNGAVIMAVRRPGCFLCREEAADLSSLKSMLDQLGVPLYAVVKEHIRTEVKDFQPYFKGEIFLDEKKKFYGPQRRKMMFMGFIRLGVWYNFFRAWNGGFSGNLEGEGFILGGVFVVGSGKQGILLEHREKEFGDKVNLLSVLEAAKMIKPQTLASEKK

[6] = target: T5, DIRAS1-DIRAS family, GTP-binding RAS-like 1 (DIRAS1) (human, UniProt O95057 1-198, limits assumed)
T5 sequence (looked up): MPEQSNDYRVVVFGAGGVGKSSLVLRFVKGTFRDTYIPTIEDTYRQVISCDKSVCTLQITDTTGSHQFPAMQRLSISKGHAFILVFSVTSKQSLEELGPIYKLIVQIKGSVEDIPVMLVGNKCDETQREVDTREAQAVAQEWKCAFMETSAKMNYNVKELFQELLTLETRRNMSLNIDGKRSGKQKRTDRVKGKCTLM

[7] = target: HS3ST1-heparan sulfate (glucosamine) 3-O-sulfotransferase 1 (HS3ST1) (human, UniProt O14792 21-307, limits assumed)
[8] = target: T6, GPX1-glutathione peroxidase 1 (GPX1) (human, UniProt P07203 1-203, limits assumed)
T6 sequence (looked up): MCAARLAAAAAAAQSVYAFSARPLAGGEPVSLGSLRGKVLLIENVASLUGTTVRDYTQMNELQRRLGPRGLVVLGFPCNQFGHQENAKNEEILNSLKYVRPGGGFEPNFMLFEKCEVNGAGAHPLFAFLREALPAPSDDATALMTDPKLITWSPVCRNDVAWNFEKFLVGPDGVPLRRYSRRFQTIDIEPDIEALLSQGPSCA

[9] = target: T7, CSF3-Granulocyte colony-stimulating factor (human, UniProt P09919 31-207, limits assumed)
T7 sequence (looked up): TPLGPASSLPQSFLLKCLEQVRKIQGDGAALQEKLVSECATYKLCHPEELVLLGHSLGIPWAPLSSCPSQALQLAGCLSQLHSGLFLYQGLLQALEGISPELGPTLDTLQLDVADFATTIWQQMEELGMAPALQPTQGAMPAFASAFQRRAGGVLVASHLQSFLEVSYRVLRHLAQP

[10] = target: T8, BHMT-betaine-homocysteine methyltransferase (BHMT) (human, UniProt Q93088 1-406)
T8 sequence (looked up): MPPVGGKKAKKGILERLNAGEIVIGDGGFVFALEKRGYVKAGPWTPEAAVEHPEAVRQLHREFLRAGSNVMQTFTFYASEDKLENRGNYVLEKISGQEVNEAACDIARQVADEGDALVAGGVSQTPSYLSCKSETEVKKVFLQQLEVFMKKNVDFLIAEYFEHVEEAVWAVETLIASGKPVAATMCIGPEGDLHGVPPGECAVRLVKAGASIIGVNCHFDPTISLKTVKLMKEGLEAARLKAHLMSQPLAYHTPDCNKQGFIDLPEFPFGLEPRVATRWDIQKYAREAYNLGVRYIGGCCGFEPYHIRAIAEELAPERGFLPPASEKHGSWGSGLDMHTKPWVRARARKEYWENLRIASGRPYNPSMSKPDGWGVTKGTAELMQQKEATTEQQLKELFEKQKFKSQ

[11] = target: LOC400500-PREDICTED: Homo sapiens hypothetical LOC400500 (LOC400500) (human)
[12] = target: HPCAL4-hippocalcin like 4 (HPCAL4) (human, UniProt Q9UM19 1-191)
[13] = target: CTSZ-Cathepsin Z (human, UniProt Q9UBR2 24-303, limits assumed)
CTSZ-Cathepsin Z, sequence (Q9UBR2 24-303 limits assumed): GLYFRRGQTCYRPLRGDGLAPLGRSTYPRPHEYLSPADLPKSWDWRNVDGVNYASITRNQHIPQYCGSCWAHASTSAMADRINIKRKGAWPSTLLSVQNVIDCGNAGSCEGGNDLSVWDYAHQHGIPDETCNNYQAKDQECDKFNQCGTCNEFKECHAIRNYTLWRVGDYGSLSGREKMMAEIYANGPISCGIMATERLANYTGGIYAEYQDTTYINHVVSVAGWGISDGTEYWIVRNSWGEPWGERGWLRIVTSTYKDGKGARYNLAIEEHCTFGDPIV

SAR1B-SAR1 gene homolog B (S. cerevisiae) (SAR1B), transcript variant 2, sequence (Q9Y6B6 whole entry, change not shown): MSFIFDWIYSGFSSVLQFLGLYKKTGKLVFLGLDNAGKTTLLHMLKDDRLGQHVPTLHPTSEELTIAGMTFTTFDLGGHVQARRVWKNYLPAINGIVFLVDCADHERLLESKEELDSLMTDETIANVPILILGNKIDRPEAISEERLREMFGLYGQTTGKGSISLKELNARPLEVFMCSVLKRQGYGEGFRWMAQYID
HS3ST1-heparan sulfate (glucosamine) 3-O-sulfotransferase 1 (HS3ST1), sequence (O14792 21-307 limits assumed): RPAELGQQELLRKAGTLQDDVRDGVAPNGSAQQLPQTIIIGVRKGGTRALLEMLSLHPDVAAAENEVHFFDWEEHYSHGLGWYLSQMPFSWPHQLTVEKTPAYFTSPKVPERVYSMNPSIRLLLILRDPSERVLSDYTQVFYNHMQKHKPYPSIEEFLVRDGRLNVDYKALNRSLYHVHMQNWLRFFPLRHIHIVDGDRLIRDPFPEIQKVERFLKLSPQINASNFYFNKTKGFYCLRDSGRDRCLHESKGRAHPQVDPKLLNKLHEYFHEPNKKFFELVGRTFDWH
HPCAL4-hippocalcin like 4 (HPCAL4), sequence (Q9UM19 whole entry): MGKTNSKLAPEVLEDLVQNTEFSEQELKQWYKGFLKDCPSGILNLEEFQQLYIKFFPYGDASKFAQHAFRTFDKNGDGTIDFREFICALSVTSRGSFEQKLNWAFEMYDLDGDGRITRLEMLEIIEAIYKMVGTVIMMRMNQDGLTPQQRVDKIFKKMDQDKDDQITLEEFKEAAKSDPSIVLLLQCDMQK

GST Average SNR [1]: -0.746 | GST Average SNR [2]: -0.451 | GST Average SNR [3]: 0.558 | GST Average SNR [4]: -0.147 | GST Average SNR [5]: 0.966 | GST Average SNR [6]: 0.988 | GST Average SNR [7]: 0.092 | GST Average SNR [8]: 1.22 | GST Average SNR [9]: 1.27 | GST Average SNR [10]: 1.44 | GST Average SNR [11]: -0.119 | GST Average SNR [12]: -0.871 | GST Average SNR [13]: 1.28
B1: 3× Flag-3×MBT (designed binder)
chain: EEWSSSQPATGEKKECWSWESYLEEQKAITAPVSLFQDSQAVTHNKNGFKLGMKLEGIDPQHPSMYFILTVAEVCGYRLRLHFDGYSECHDFWVNANSPDIHPAGWFEKTGHKLQPPKGYKEEEFSWSQYLRSTRAQAAPKHLFVSQSHSPPPLGFQVGMKLEAVDRMNPSLVCVASVTDVVDSRFLVHFDNWDDTYDYWCDPSSPYIHPVGWCQKQGKPLTPPQDYPDPDNFCWEKYLEETGASAVPTWAFKVRPPHSFLVNMKLEAVDRRNPALIRVASVEDVEDHRIKIHFDGWSHGYDFWIDADHPDIHPAGWCSKTGHPLQPPLGPREPSSASPGG
notes: also called Flag-tagged 3×MBT; 3xFlag-3xMBT; not shown: made by PreScission cleavage of GST-3× Flag-3×MBT
